Results: article PMC3064727

Substrate: CC(C)C[C@H](N)C(=O)O
Assay: pyrophosphate release assay of A-domain adenylation
Type: biochemical, Aspergillus terreus
Settings: holo C-A-T-R module

B1: NRPS325 (Aspergillus terreus NIH2624) (protein)
chain: PTVERHVESQEPVVEAAVVASSSDSSSEGTMTPPSSRGINTPHTEITNLQLESVKSKACTAVQRREKMSFSQNRLWFPSAYLEQETPFNCTTSYTLTGPLDTARLENAFQRLIQRHESFRTAFYTDEVSGAAMQRVLASSPFQLRTMLGNKDDMQRVFRQIANYHFDLSVADTLVATLISHGPKDHTIVFGYHHIIMDGVSWQITLNDLARFYESDNPELPQLSQYIEFSVKQRQLVSSGAHDAKLSYWRKEFPSAPPLLPLFPFAKVGARKALTRYDTLDYIYDVDVSLVSKIKKASLAAKTTTFHFYLAAFVVLLNRFLEIDDVCLGIIDANRSDKTFLNTVGFLLDMLPLRLKVNKKERFVHTLRNTRAKAYNALEHSGVPLETILKELQVPTSATNTPLFQVLMNYRMGALRAPQMGDAKMNFLDYEDAKAPFDLAISIDEKDDGTGMLTFSMQDYMYDWEGAELLVKTYVHLLDTLATDSSQRINEVSLFDESLVNQSMVAGTGPVTGLDWAGTETISQRVDAMTAQRPDGVAVKDLNGKARTYAETQARVYALASSLQQAGITSGARVAVYCEPTVDTVALVLAIYRVGAAYIPLDVRNSHERLADVVRECKPTLILYHGATKHTLVDVAGDGQDALDIDTVPQSAAPIPDVSKLSDPAVILYTSGSTGKPKGIMLTHANLSLQFASISSALDLTDRDVVLQQSALGFDASLSQMFMALTNGGTLIHGSNRGDPVDLAALIEREGVTLTLIMISEMSALLQYGSDILSRCQSWRIALCGGEAFTVNLLRKFRDLNLPNLELYNAYGPTEASIMSSLGKVAYRRTDWGDGSVVPVGPPLPNYGVYVLDENFQPCPLGWPGELCICGPGVAEGYVGLPELTSSKFQPDQLRKPQGPSYDGWVRVYRTGDKARLLQDGSFVFLGRMDGDSQVKLRGIRIELNDISNSIVKTSKEAIVDAATIVKGTTSQTLVSFVVFAPAKVVDLERSNSSASAYLRQVIQSLPLPVYMRPAIAVPLERLPFTERGKLDTKALAAIPIQEDEETVNEELSETEQKLKQVWQDILSEQGMSLEIRRQSDFFSVGGNSLMLMRVRAKMLEVFGVSVPLAELFQASTLETLASRLDGNKTAESDNIVWNEETALDVSLPPAIAHPRDHPEKDLSVILTGSTGFLGRAIVRQLIADPRISTIHCLAVRPGRTLPEELVGSSKVIVYTGDLAAKRLGLSAPQAQEIFSSAAAIIHNGAEVSHMKSYHSLRPTNVDSTRQLVELALRSSIDSAVRTPAFHYVSTAGVGHLLGIPAFPEQSVSSSPPPVDGSDGYVAAKWASERILEQASERLGLPVFIHRPSNITGPDVGDRDIIHNVWRWSEVLRAVPDLVAAGAKGAFDFVGVETCAKGITDTLFVQASAGHLAYIHQSGENVIPVEEFGECLQRNGGADVELVPFDQWVDKAVQAGLDDLVASFLRGTKGAFQMPFLPKGLRQ
  Km: 310.0 ± 15.5 µM
  kcat: 0.287 ± 0.04 s⁻¹
